Data on 8 molecules can be found in article PMC5308735, “Inhibition of insulin-like growth factor II (IGF-II)-dependent cell growth by multidentate pentamannosyl 6-phosphate-based ligands targeting the mannose 6-phosphate/IGF-II receptor” (Oncotarget, 2016).

Assay [1] concerns the target soluble bovine M6P/IGF2R (mannose 6-phosphate/insulin-like growth factor II receptor) (bovine) (UniProt P08169).
The target is the same in assay [2]. The assay can be described thus: radioligand binding; competitive displacement of 1.5 nM ^125I-PMP-BSA tracer from soluble bovine M6P/IGF2R coupled to Sepharose 4B; test ligands 1 pM to 10 μM; 50 mM HEPES pH 7.4, 0.15 M NaCl, 0.05% Triton X-100; 16 h at 4°C.
Assay [3] has as its target recombinant human insulin-like growth factor II (IGF-II). Nature of the assay: direct radioligand binding (125I-IGF-II) to FLAG-tagged receptor immunoprecipitated on M2 α-FLAG affinity resin. Particulars: equimolar amounts of expressed soluble receptors from cell lysates; parent: est. 5800; read off a plot.
Assay [4] concerns the target T1, wild-type, full-length ectodomain M6P/IGF2R mini-receptor with C-terminal FLAG (1-15F) (human, UniProt P11717 41-2304).
T1 construct: human M6P/IGF2R, all 15 ectodomain repeats; also called wild-type M6P/IGF2R construct; source: HEK 293, transiently transfected; cell lysates and conditioned media, immunoadsorbed to M2 α-FLAG resin; not shown: FLAG, C-terminal, kept
The assay can be described thus: radioligand binding; competitive displacement of 2 nM ^125I-PMP-BSA from FLAG-tagged soluble receptors immunoprecipitated on M2 α-FLAG resin and washed; PMP-ligands 1 pM to 10 μM; assay buffer, 4 h at 4°C. Particulars: both partners purified.

The target in assay [5] is T2, full-length ectodomain M6P/IGF2R mini-receptor with R1325A (repeat 9), C-terminal FLAG (human, UniProt P11717 41-2304, R1325A).
T2 construct: human M6P/IGF2R, all 15 ectodomain repeats, arginine-to-alanine substitution in the 9th domain; also called R1325AF; source: HEK 293, transiently transfected; cell lysates and conditioned media, immunoadsorbed to M2 α-FLAG resin; not shown: FLAG, C-terminal, kept
The assay is described as above. Particulars: both partners purified.

Assay [6] addresses T3, soluble bovine M6P/IGF2R (mannose 6-phosphate/insulin-like growth factor II receptor) (bovine, UniProt P08169 45-2313).
T3 construct: soluble form of the bovine mannose 6-phosphate/IGF-II receptor as it circulates in fetal bovine serum; also called sIGF2R; soluble M6P/IGF2R; source: purified from fetal bovine serum; coupled to Sepharose 4B for the displacement assay
The assay can be described thus: radioligand binding; competitive displacement of 1.5 nM ^125I-PMP-BSA tracer from soluble bovine M6P/IGF2R coupled to Sepharose 4B; test ligands 1 pM to 10 μM; 50 mM HEPES pH 7.4, 0.15 M NaCl, 0.05% Triton X-100; 16 h at 4°C. Particulars: both partners purified.

The target in assay [7] is T1, wild-type, full-length ectodomain …. The assay can be described thus: radioligand binding; direct binding of ^125I-PMP-BSA or ^125I-hGUS to equimolar FLAG-tagged soluble receptors immunoadsorbed from HEK 293 lysates/conditioned media to M2 α-FLAG resin and washed. The following applies: both partners purified.
Assay [8] has as its target T4, full-length ectodomain M6P/IGF2R mini-receptor with R426A (repeat 3), C-terminal FLAG (human, UniProt P11717 41-2304, R426A).
T4 construct: human M6P/IGF2R, all 15 ectodomain repeats, arginine-to-alanine substitution in the 3rd domain; also called R426A mutant construct; source: HEK 293, transiently transfected; cell lysates and conditioned media, immunoadsorbed to M2 α-FLAG resin; not shown: FLAG, C-terminal, kept
The description is as above. The following applies: both partners purified.

The target in assay [9] is T2, full-length ectodomain M6P/IGF2R …. Described as above. The following applies: both partners purified.

Usually IC50 stands for the midpoint of a concentration-inhibition curve.

Chain of soluble bovine M6P/IGF2R (mannose 6-phosphate/insulin-like growth factor II receptor) (bovine) (P08169 45-2313): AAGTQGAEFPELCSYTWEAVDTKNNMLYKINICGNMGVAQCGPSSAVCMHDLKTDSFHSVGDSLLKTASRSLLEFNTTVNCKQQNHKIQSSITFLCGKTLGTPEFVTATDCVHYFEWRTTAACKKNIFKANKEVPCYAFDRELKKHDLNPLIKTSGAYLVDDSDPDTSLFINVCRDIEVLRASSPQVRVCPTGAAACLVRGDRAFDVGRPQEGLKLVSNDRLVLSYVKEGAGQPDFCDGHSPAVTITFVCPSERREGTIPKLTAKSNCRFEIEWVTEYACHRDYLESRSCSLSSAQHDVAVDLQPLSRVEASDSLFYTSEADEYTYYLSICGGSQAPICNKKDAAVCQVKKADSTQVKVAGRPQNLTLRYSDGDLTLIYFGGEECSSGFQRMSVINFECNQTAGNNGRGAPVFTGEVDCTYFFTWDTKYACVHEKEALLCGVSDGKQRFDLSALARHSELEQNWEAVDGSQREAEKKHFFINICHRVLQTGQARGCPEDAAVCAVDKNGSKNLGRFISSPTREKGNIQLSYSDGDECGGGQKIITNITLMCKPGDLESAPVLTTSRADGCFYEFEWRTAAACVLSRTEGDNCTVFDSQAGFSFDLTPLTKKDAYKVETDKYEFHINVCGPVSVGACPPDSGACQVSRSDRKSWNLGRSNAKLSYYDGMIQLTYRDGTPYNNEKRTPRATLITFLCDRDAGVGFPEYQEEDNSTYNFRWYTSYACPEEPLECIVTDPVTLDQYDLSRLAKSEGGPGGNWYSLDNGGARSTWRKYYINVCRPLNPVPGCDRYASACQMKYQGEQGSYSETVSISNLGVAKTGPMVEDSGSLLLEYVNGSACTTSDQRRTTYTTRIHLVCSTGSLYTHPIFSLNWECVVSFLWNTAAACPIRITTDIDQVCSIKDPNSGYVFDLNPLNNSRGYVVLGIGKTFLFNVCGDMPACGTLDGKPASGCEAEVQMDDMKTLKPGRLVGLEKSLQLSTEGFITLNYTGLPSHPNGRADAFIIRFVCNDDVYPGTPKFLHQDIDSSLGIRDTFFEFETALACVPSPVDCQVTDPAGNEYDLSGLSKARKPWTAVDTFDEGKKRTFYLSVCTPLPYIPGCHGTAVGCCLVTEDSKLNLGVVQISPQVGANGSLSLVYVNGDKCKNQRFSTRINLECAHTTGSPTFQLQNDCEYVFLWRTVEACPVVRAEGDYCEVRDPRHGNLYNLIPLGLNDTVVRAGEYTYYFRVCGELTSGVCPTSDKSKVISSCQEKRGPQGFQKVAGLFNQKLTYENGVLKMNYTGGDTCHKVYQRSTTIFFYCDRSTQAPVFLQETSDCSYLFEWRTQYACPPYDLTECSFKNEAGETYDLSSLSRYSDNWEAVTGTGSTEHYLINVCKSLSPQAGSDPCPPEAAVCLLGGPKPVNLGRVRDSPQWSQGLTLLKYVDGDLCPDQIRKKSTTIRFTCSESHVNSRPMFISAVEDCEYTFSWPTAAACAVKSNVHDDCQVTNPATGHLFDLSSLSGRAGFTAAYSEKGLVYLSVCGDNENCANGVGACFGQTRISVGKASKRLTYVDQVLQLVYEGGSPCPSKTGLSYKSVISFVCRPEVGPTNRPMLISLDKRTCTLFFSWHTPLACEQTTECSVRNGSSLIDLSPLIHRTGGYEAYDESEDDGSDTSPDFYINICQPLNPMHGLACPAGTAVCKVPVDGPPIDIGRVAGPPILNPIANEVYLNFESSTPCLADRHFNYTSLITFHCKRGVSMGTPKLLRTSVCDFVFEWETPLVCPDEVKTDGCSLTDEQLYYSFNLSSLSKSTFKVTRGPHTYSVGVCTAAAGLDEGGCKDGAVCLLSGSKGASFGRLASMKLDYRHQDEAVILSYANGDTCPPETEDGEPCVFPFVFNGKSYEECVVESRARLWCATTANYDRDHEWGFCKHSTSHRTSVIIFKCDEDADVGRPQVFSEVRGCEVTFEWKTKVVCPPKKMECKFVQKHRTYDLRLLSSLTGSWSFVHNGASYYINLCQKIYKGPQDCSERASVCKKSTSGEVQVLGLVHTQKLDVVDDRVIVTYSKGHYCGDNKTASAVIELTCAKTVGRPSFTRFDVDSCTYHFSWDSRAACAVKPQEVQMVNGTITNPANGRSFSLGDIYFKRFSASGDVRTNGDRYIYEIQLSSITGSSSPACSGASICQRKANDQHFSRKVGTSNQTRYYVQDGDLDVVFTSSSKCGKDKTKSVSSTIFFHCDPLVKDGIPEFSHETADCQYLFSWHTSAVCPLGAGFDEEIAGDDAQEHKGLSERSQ
T3 sequence (P08169 45-2313): as above

Turning to “pentamannosyl 6-phosphate-derivatized seryl-tyrosyl-lysine (PMP-SYK) (peptide)”, the suppression of growth (MTT, 2 days) of mouse L cells over-expressing the M6P/IGF2R, PMP-SYK 1 pM to 1 μM; blocked by saturating M6P in assay [1] was determined as 50%. In assay [2], this molecule gave a concentration for half-maximal inhibition (IC50) of 52 nM and an RBA (relative binding affinity, normalized to free M6P) of 1380.

On to “pentamannosyl 6-phosphate-derivatized lysyl-tyrosyl-lysine (PMP-KYK) (peptide)”, for which, in assay [2], the IC50 is 120 nM and the RBA (relative binding affinity, normalized to free M6P) amounted to 600.

With “wild-type, full-length ectodomain M6P/IGF2R mini-receptor with C-terminal FLAG (1-15F) (from UniProt P11717) R426A”, in assay [3], the response is 5300 CPM.

For the molecule “wild-type, full-length ectodomain M6P/IGF2R mini-receptor with C-terminal FLAG (1-15F) (from UniProt P11717) R1325A”, the response in [3] was 5000 CPM.

Turning to “pentamannosyl 6-phosphate-derivatized bovine insulin (PMP-INS) (ligand)”, in assay [2], the concentration for half-maximal inhibition (IC50) is 13 nM and the RBA (relative binding affinity, normalized to free M6P) stood at 5540.

With “wild-type, full-length ectodomain M6P/IGF2R mini-receptor with C-terminal FLAG (1-15F) (from UniProt P11717) R426A; R1325A”, in assay [3], the response amounted to 5900 CPM.

B1: pentamannosyl 6-phosphate-derivatized chicken egg ovalbumin (PMP-OVA) (ligand, UniProt P01012 1-386, looked up)
chain: MGSIGAASMEFCFDVFKELKVHHANENIFYCPIAIMSALAMVYLGAKDSTRTQINKVVRFDKLPGFGDSIEAQCGTSVNVHSSLRDILNQITKPNDVYSFSLASRLYAEERYPILPEYLQCVKELYRGGLEPINFQTAADQARELINSWVESQTNGIIRNVLQPSSVDSQTAMVLVNAIVFKGLWEKAFKDEDTQAMPFRVTEQESKPVQMMYQIGLFRVASMASEKMKILELPFASGTMSMLVLLPDEVSGLEQLESIINFEKLTEWTSSNVMEERKIKVYLPRMKMEEKYNLTSVLMAMGITDVFSSSANLSGISSAESLKISQAVHAAHAEINEAGREVVGSAEAGVDAASVSEEFRADHPFLFCIKHIATNAVLFFGRCVSP
modifications: pentamannosyl 6-phosphate (PMP) coupled by reductive amination, approximately 13 PMP groups
notes: chicken egg white albumin (ovalbumin); source: bought: Sigma (A-5503), conjugated to PMP with NaCNBH3, dialysed and gel filtered (Sephadex G-50)
Regarding B1, the binding result in [4] and in assay [5] was “binds” in each case. This molecule registered an IC50 in assay [6] of 21 nM.

B2: human β-glucuronidase (hGUS) (enzyme, UniProt P08236 23-651, looked up)
chain: LQGGMLYPQESPSRECKELDGLWSFRADFSDNRRRGFEEQWYRRPLWESGPTVDMPVPSSFNDISQDWRLRHFVGWVWYEREVILPERWTQDLRTRVVLRIGSAHSYAIVWVNGVDTLEHEGGYLPFEADISNLVQVGPLPSRLRITIAINNTLTPTTLPPGTIQYLTDTSKYPKGYFVQNTYFDFFNYAGLQRSVLLYTTPTTYIDDITVTTSVEQDSGLVNYQISVKGSNLFKLEVRLLDAENKVVANGTGTQGQLKVPGVSLWWPYLMHERPAYLYSLEVQLTAQTSLGPVSDFYTLPVGIRTVAVTKSQFLINGKPFYFHGVNKHEDADIRGKGFDWPLLVKDFNLLRWLGANAFRTSHYPYAEEVMQMCDRYGIVVIDECPGVGLALPQFFNNVSLHHHMQVMEEVVRRDKNHPAVVMWSVANEPASHLESAGYYLKMVIAHTKSLDPSRPVTFVSNSNYAADKGAPYVDVICLNSYYSWYHDYGHLELIQLQLATQFENWYKKYQKPIIQSEYGAETIAGFHQDPPLMFTEEYQKSLLEQYHLGLDQKRRKYVVGELIWNFADFMTEQSPTRVLGNKKGIFTRQRQPKSAAFLLRERYWKIANETRYPHSVAKSQCLENSLFT
modifications: multiple high-mannose N-linked oligosaccharides capped with M6P; ^125I-labelled (IODOGEN) where used as tracer
notes: human β-glucuronidase, a homotetrameric lysosomal enzyme; source: purified human β-glucuronidase provided by Dr. William S. Sly
In the case of B2, the binding result in assay [7], in [8] and in assay [9] was “binds” in each case.
